Assay results as given in PMC9482650, “Quantitative fragmentomics allow affinity mapping of interactomes” (Nature Communications, 2022).

Experiments:
Test in all cases: holdup assay
Set-up in all cases: key: below the threshold = too weak to quantify, mostly under pKd 3.1 to 4
Details in all cases: plain residues with an end cap or a label only (N-terminal biotin on a linker: ado-ado)
TJP1_2, Q07157 = biological target: TJP1_2, Q07157
NHERF2_2, Q15599 = biological target: NHERF2_2, Q15599
PARD3B_1, Q8TEW8 = biological target: T1, PARD3B_1, Q8TEW8
T1 sequence (Q8TEW8 196-299, limits assumed, looked up): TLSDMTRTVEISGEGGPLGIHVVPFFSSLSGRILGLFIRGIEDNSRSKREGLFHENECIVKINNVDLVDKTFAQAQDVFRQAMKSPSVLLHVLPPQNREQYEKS

SNTG1, Q9NSN8 = biological target: T2, SNTG1, Q9NSN8
T2 sequence (Q9NSN8 52-150, limits assumed, looked up): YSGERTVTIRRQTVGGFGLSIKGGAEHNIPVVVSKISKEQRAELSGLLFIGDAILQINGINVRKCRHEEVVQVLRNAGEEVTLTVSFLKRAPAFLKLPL

Inadl_4, Q8NI35 = biological target: Inadl_4, Q8NI35
PCLO, Q9Y6V0 = biological target: T3, PCLO, Q9Y6V0
T3 sequence (Q9Y6V0 4491-4600, limits assumed, looked up): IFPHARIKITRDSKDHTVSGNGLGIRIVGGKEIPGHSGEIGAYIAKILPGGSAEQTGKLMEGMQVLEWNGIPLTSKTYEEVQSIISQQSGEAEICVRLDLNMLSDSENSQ

HTRA3, P83110 = biological target: T4, HTRA3, P83110
T4 sequence (P83110 354-453, limits assumed, looked up): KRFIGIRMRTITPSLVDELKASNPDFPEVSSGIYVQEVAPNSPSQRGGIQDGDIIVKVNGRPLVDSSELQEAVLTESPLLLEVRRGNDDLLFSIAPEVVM

Inadl_3, Q8NI35 = biological target: Inadl_3, Q8NI35
NOS1, P29475 = biological target: NOS1, P29475
SIPA1L2, Q9P2F8 = biological target: T5, SIPA1L2, Q9P2F8
T5 sequence (Q9P2F8 945-1036, limits assumed, looked up): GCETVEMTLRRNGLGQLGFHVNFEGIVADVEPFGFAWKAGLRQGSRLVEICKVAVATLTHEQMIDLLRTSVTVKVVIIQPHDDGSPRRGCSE

Inadl_9, Q8NI35 = biological target: Inadl_9, Q8NI35
ARHGEF12, Q9NZN5-2 = biological target: ARHGEF12, Q9NZN5-2
SNTA1, Q13424 = biological target: T6, SNTA1, Q13424
T6 sequence (Q13424 82-180, limits assumed, looked up): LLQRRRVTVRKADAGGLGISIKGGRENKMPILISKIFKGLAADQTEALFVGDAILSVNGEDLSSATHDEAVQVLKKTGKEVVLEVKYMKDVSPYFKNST

IL16_1, Q14005 = biological target: IL16_1, Q14005
LNX2_3, Q8N448 = biological target: T7, LNX2_3, Q8N448
T7 sequence (Q8N448 463-564, limits assumed, looked up): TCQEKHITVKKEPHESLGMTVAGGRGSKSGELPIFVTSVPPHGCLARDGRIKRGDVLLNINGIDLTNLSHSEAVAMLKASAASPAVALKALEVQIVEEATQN

MAGI2_5, Q86UL8 = biological target: MAGI2_5, Q86UL8
SNTG2, Q9NY99 = biological target: T8, SNTG2, Q9NY99
T8 sequence (Q9NY99 68-166, limits assumed, looked up): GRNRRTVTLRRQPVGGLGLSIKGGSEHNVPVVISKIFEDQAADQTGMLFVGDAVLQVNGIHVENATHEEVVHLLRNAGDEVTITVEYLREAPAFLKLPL

HTRA4, P83105 = biological target: T9, HTRA4, P83105
T9 sequence (P83105 378-476, limits assumed, looked up): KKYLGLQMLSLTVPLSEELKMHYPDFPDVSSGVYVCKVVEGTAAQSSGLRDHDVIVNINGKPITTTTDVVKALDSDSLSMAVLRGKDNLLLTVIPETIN

SYNJ2BP, P57105 = biological target: T10, SYNJ2BP, P57105
T10 sequence (P57105 8-110, limits assumed, looked up): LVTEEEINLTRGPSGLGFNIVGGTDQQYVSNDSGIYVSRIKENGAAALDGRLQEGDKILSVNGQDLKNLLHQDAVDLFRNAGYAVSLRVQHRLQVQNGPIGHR

SCRIB_2, Q14160 = biological target: SCRIB_2, Q14160
DLG2_2, Q15700 = biological target: DLG2_2, Q15700
MAST1, Q9Y2H9 = biological target: MAST1, Q9Y2H9
NHERF4_1, Q86UT5-2 = biological target: NHERF4_1, Q86UT5-2
PARD3_3, Q8TEW0 = biological target: PARD3_3, Q8TEW0
ARHGEF11, O15085 = biological target: T11, ARHGEF11, O15085
T11 sequence (O15085 42-136, limits assumed, looked up): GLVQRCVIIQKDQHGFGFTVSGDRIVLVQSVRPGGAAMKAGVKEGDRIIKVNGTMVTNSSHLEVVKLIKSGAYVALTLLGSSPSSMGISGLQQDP

MPP7, Q5T2T1 = biological target: T12, MPP7, Q5T2T1
T12 sequence (Q5T2T1 134-230, limits assumed, looked up): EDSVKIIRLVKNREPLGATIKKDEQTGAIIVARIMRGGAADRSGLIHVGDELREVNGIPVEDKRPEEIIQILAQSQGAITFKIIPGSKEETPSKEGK

TJP1_2, Q07157, sequence (Q07157 181-274): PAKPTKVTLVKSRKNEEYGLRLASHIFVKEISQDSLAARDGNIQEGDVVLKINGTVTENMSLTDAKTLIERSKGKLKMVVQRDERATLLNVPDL
NHERF4_1, Q86UT5-2, sequence (Q86UT5 other isoform, or with tags, fused parts or gaps): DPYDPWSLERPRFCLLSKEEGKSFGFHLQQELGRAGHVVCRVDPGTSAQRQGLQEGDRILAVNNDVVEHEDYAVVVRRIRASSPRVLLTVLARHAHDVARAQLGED
IL16_1, Q14005, sequence (Q14005 210-306): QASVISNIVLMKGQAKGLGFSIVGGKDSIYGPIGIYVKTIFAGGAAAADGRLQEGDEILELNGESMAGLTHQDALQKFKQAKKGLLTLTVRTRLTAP
SCRIB_2, Q14160, sequence (Q14160 857-960): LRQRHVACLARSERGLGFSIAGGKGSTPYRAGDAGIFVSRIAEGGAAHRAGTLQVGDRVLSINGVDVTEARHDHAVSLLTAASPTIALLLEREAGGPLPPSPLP
MAST1, Q9Y2H9, sequence (Q9Y2H9 962-1065): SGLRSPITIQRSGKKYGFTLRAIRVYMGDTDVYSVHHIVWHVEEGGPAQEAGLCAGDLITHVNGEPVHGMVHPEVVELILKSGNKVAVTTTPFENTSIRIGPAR
ARHGEF12, Q9NZN5-2, sequence (Q9NZN5 other isoform, or with tags, fused parts or gaps): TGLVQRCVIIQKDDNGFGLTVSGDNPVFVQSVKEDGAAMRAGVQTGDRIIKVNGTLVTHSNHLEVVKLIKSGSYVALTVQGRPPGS
MAGI2_5, Q86UL8, sequence (Q86UL8 915-1017): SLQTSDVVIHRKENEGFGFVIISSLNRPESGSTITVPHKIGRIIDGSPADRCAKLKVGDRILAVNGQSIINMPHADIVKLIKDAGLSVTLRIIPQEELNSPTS
PARD3_3, Q8TEW0, sequence (Q8TEW0 582-685): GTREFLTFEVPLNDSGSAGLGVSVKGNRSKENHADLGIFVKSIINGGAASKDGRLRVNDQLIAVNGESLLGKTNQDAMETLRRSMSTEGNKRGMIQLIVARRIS
Inadl_9, Q8NI35, sequence (Q8NI35 1530-1615): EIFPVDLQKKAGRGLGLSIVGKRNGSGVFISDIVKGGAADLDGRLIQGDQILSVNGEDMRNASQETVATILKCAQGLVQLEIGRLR
Inadl_4, Q8NI35, sequence (Q8NI35 547-651): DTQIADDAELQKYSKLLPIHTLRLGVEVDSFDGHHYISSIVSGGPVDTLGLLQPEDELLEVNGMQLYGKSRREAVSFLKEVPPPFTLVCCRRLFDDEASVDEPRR
DLG2_2, Q15700, sequence (Q15700 189-283): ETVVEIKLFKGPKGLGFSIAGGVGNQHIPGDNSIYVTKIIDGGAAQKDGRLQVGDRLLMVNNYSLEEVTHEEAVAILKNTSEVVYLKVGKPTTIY
NOS1, P29475, sequence (P29475 9-101): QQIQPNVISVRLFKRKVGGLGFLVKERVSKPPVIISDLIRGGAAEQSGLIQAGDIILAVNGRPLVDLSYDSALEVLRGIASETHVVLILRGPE
NHERF2_2, Q15599, sequence (Q15599 142-238): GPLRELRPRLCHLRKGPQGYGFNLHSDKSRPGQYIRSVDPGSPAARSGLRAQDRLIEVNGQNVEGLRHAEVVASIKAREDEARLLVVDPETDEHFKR
Inadl_3, Q8NI35, sequence (Q8NI35 359-469): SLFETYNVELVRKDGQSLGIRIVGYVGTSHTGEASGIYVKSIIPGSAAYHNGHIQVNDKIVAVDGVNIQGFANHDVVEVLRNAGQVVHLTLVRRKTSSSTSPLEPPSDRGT

Row | pKd (TJP1_2, Q07157) | pKd (NHERF2_2, Q15599) | pKd (PARD3B_1, Q8TEW8) | pKd (SNTG1, Q9NSN8) | pKd (Inadl_4, Q8NI35) | pKd (PCLO, Q9Y6V0) | pKd (HTRA3, P83110) | pKd (Inadl_3, Q8NI35) | pKd (NOS1, P29475) | pKd (SIPA1L2, Q9P2F8) | pKd (Inadl_9, Q8NI35) | pKd (ARHGEF12, Q9NZN5-2) | pKd (SNTA1, Q13424) | pKd (IL16_1, Q14005) | pKd (LNX2_3, Q8N448) | pKd (MAGI2_5, Q86UL8) | pKd (SNTG2, Q9NY99) | pKd (HTRA4, P83105) | pKd (SYNJ2BP, P57105) | pKd (SCRIB_2, Q14160) | other results | Binder
1 | below the threshold | 4.21 | below the threshold | 3.63 | below the threshold | below the threshold | 3.66 | 3.99 | below the threshold | 3.47 | 3.88 | 4.74 | 4.41 | below the threshold | below the threshold | 4.54 | 4.13 | 4.08 | 4.89 | below the threshold | pKd (DLG2_2, Q15700): 5.54; pKd (MAST1, Q9Y2H9): 4.82; pKd (NHERF4_1, Q86UT5-2): below the threshold; pKd (PARD3_3, Q8TEW0): below the threshold; pKd (ARHGEF11, O15085): 4.68; pKd (MPP7, Q5T2T1): below the threshold | RRRESYSTTV [EVI5, O60447]
2 | 3.62 | below the threshold | below the threshold | below the threshold | below the threshold | below the threshold | below the threshold | below the threshold | 3.76 | below the threshold | 4.01 | 3.65 | 3.52 | below the threshold | below the threshold | below the threshold | below the threshold | 4 | 4.61 | 3.6 | pKd (DLG2_2, Q15700): 3.55; pKd (MAST1, Q9Y2H9): below the threshold; pKd (NHERF4_1, Q86UT5-2): 3.63; pKd (PARD3_3, Q8TEW0): below the threshold; pKd (ARHGEF11, O15085): below the threshold; pKd (MPP7, Q5T2T1): below the threshold | LRSPRTPSEV [OR10G3, Q8NGC4]
